The values that follow come from publication PMC6308234 (Scientific Reports, 2018).

The target of test [1] is T1, DENV-1 nonstructural protein 1 (NS1), recombinant (Dengue virus 1, strain Nauru/West …, UniProt P17763).
T1 construct: also called DENV-1 NS1; NS1 from DENV-1; source: bought: Native Antigen Company (recombinant)
Kind of test: SPR. Conditions: both partners purified.

In test [2] the target is T2, DENV-2 nonstructural protein 1 (NS1), recombinant (Dengue virus 2, strain …, UniProt P29990).
T2 construct: also called DENV-2 NS1; NS1 from DENV-2; source: bought: Native Antigen Company (recombinant)
The test can be described thus: SPR. To be noted: both partners purified.

For test [3], the target named is T3, DENV-3 nonstructural protein 1 (NS1), recombinant (Dengue virus 3, strain Sri …, UniProt Q6YMS4).
T3 construct: also called DENV-3 NS1; NS1 from DENV-3; source: bought: Native Antigen Company (recombinant)
Kind of test: SPR. To be noted: both partners purified.
Target sequence in this assay (Q6YMS4 774-1125): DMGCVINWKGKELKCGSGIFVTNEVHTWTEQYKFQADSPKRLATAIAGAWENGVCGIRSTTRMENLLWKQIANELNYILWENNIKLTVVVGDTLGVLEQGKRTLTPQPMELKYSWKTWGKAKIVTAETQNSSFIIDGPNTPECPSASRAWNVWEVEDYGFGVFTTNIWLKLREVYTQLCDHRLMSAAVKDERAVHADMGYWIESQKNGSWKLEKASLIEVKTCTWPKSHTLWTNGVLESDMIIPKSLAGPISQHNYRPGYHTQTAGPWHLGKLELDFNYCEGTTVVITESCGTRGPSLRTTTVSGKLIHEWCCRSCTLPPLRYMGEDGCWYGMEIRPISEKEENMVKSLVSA

Test [4] addresses T4, DENV-4 nonstructural protein 1 (NS1), recombinant (Dengue virus 4, strain …, UniProt P09866).
T4 construct: also called DENV-4 NS1; NS1 from DENV-4; source: bought: Native Antigen Company (recombinant)
Kind of test: SPR. Conditions: both partners purified.
Target sequence in this assay (P09866 775-1126): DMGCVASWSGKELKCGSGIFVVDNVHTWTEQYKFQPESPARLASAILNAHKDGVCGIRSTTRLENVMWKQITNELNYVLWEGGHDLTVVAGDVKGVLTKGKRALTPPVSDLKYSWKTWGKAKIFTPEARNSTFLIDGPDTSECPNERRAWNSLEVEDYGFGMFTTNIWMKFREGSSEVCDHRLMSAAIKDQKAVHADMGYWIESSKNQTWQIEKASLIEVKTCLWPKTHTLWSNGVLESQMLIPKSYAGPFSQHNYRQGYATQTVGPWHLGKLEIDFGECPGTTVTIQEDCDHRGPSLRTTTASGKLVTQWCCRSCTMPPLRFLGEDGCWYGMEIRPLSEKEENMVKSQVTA

Test [5] has as its target T1, DENV-1 nonstructural protein 1 (NS1), …. The test can be described thus: SPR. To be noted: both partners purified. This is another data set of the same source.
Test [6] deals with T2, DENV-2 nonstructural protein 1 (NS1), …. The test can be described thus: SPR. Conditions: both partners purified. The source holds these as a separate data set.
The target of test [7] is T3, DENV-3 nonstructural protein 1 (NS1), …. The test can be described thus: SPR. Conditions: both partners purified. This is another data set of the same source.
Test [8] deals with T4, DENV-4 nonstructural protein 1 (NS1), …. The test can be described thus: SPR. To be noted: both partners purified. This is another data set of the same source.
Test [9] has as its target T5, DENV-2 nonstructural protein 1 (NS1), recombinant (dengue virus serotype 2 (DENV-2)).
T5 chain: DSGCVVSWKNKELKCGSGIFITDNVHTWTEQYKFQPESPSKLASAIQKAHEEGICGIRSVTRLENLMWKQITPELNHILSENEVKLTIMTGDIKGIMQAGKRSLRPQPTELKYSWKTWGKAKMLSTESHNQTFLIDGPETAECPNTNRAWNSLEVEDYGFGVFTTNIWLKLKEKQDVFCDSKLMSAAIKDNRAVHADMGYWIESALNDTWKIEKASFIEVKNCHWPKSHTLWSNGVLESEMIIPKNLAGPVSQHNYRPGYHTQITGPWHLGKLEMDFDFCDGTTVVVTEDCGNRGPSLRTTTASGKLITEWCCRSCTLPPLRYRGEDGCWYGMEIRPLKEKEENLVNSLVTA
Kind of test: SPR; sdAb immobilized.

Test [10] concerns the target T6, DENV-1 nonstructural protein 1 (NS1), recombinant (dengue virus serotype 1 (DENV-1)).
T6 chain: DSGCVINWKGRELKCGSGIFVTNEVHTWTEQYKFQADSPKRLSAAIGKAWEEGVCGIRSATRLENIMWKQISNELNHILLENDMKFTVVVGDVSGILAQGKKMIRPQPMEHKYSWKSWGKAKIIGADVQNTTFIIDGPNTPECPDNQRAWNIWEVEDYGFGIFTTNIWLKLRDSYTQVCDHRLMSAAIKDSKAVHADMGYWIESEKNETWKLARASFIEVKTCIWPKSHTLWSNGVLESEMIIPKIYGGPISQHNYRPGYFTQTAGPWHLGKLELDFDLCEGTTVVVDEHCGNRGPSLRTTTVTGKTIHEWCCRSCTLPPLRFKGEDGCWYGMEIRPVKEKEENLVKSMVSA
Kind of test: SPR; sdAb immobilized.

Test [11] addresses T5, DENV-2 nonstructural protein 1 (NS1), …. The test can be described thus: SPR; sdAb immobilized.
In test [12] the target is T2, DENV-2 nonstructural protein 1 (NS1), …. The test can be described thus: MagPlex (Luminex) bead assay, direct binding. Conditions: both partners purified.

B1: sdAb DC7 (VHH)
VHH: EVQLQASGGGSVQAGGSLRLSCAHSSITVPDYTIGWYRRAPGKGGEEVSLISMHGGRTWYAGSVKGRFAISRDSVKNTVYLQMNNLKPEDTDIYYCGGTTFGLAAAPNEYDSWGQGSQVTVSS
notes: source: E. coli Turner (DE3), pET22b, periplasmic, purified (Ni-Sepharose, SEC)
Consider B1, for which the Kd in test [1] was 9.1 nM; in [2], 2.6 nM; in test [3], 1.2 nM; in [4] it was 2.2 nM; in test [5], 0.8 nM; in test [6], 0.6 nM. Besides, the Kd in test [7] is 1.7 nM; in test [8], 0.7 nM; in [9] it was 0.556 nM. Moreover, the dissociation rate constant (koff) stood at 0.00021 s⁻¹ in test [10] and 0.000155 s⁻¹ in test [11].

B2: biotinylated sdAb DB5 (VHH)
VHH: DVQLQASGGGLVQDGGSLRLSCAASGLGFRIHSMGWYRQAPGKARDLVAVITDSGQTNYAPSVKGRFTISRESAGNTVYLQMNSLKPDDTAVYYCAVTTWDPHSYWGQGTQVTVSS
notes: also called Bt-DB5
Take B2: in [12], the binding result is given as “no binding”.
